# Test results taken from patent US20210070843A1.
# Experiments:
# [1] = target: recombinant H5N1 VN/04 HA trimer (hemagglutinin ectodomain of A/Vietnam/1203/2004) (influenza A virus A/Vietnam/1203/2004 (H5N1)); assay: ELISA, coated HA
# [2] = target: full-length H1 A/California/07/2009 HA expressed on 293T cells (influenza A virus A/California/07/2009 (H1N1)); assay: cell-based or functional assay
# [3] = target: cell surface-expressed H3N2 WN/05 HA trimer (influenza A virus A/Wisconsin/67/2005 (H3N2)); assay: cell-based or functional assay
# [4] = target: full-length H5 A/Vietnam/1203/2004 HA expressed on 293T cells (influenza A virus A/Vietnam/1203/2004 (H5N1)); assay: cell-based or functional assay
# [5] = target: H7 A/Anhui/1-BALF_RG17/2013 HA on H7N9 AH/13 pseudo virus (influenza A virus A/Anhui/1-BALF_RG17/2013 (H7N9)); assay: cell-based or functional assay
# [6] = target: full-length H1 A/California/07/2009 HA expressed on 293T cells (influenza A virus A/California/07/2009 (H1N1)); assay: flow cytometry, HA-expressing 293T
# [7] = target: cell surface-expressed H3N2 WN/05 HA trimer (influenza A virus A/Wisconsin/67/2005 (H3N2)); assay: flow cytometry, HA-expressing 293T
# [8] = target: full-length H5 A/Vietnam/1203/2004 HA expressed on 293T cells (influenza A virus A/Vietnam/1203/2004 (H5N1)); assay: flow cytometry, HA-expressing 293T
# [9] = target: recombinant H7N9 AH/13 HA trimer (hemagglutinin ectodomain of A/Anhui/1-BALF_RG17/2013) (influenza A virus A/Anhui/1-BALF_RG17/2013 (H7N9)); assay: ELISA, coated HA
Binder,EC50 [1] [µg/mL],IC50 of pseudo virus neutralization H1N1 CA/09 [2] [µg/mL],IC50 of true virus neutralization H1N1 CA/09 [2] [µg/mL],IC50 of pseudo virus neutralization H3N2 WN/05 [3] [µg/mL],IC50 of pseudo virus neutralization H5N1 VN/04 [4] [µg/mL],IC50 of pseudo virus neutralization H7N9 AH/13 [5] [µg/mL],EC50 [6] [µg/mL],max. MFI [6] [MFI],max. MFI [7] [MFI],max. MFI [8] [MFI],EC50 [7] [µg/mL],EC50 [9] [µg/mL],EC50 [8] [µg/mL]
"S06 (antibody, V domains shown) VH: EVQLVESGGGLVQPGGSLRLSCAASGFTIGGGWIHWVRQAPGKGLEWVAFIGPYGGSTFYADSVKGRFTISADTSKNTAYLQMNSLRAEDTAVYYCARFNFGFWNHMDYWGQGTLVTVSS VL: DIQMTQSPSSLSASVGDRVTITCRASQDVSSWVAWYQQKPGKAPKLLIYGTTFLHSGVPSRFSGSGSGTDFTLTISSLQPEDFATYYCQQYYNGPLTFGQGTKVEIKR",0.311,> 100,> 500,> 20,> 200,> 200,3.98,1650,135,249,,,
"S45 (antibody, V domains shown) VH: EVQLVESGGGLVQPGGSLRLSCAASGFTINGSSIHWVRQAPGKGLEWVAYIGPFGGSTYYADSVKGRFTISADTSKNTAYLQMNSLRAEDTAVYYCARFWHGYNLYMDYWGQGTLVTVSS VL: DIQMTQSPSSLSASVGDRVTITCRASQDVGWWVAWYQQKPGKAPKLLIYGARFLYSGVPSRFSGSGSGTDFTLTISSLQPEDFATYYCQQYFNGPLTFGQGTKVEIKR",0.23,> 100,> 500,> 20,> 200,> 200,4.47,2470,529,451,15.8,,
"P58 (antibody, V domains shown) VH: EVQLVESGGGLVQPGGSLRLSCAASGFTIGGGGIHWVRQAPGKGLEWVAWIWPYWGYTYYADSVKGRFTISADTSKNTAYLQMNSLRAEDTAVYYCARFNSYSYSGVMDYWGQGTLVTVSS VL: DIQMTQSPSSLSASVGDRVTITCRASQDVYSYVAWYQQKPGKAPKLLISSSRGLYSGVPSRFSGSGSGTDFTLTISSLQPEDFATYYCQQYSSFPITFGQGTKVEIKR",> 10,> 100,> 500,> 20,> 200,> 200,0.25,6290,697,6710,3.58,0.504,0.366
"P03 (antibody, V domains shown) VH: EVQLVESGGGLVQPGGSLRLSCAASGFTIDSFGIHWVRQAPGKGLEWVAFIGPFGGSTFYADSVKGRFTISADTSKNTAYLQMNSLRAEDTAVYYCARFDSNSYSYHGIMDYWGQGTLVTVSS VL: DIQMTQSPSSLSASVGDRVTITCRASQDVWGYVAWYQQKPGKAPKLLISWSGSLYSGVPSRFSGSGSGTDFTLTISSLQPEDFATYYCQQYYNWPVTFGQGTKVEIKR",> 10,> 100,> 500,> 20,> 200,> 200,0.494,6020,147,216,,,
"S29 (antibody, V domains shown) VH: EVQLVESGGGLVQPGGSLRLSCAASGFTISDYWIHWVRQAPGKGLEWVASIWPSGGYTYYADSVKGRFTISADTSKNTAYLQMNSLRAEDTAVYYCARFNWIVGHYMDYWGQGTLVTVSS VL: DIQMTQSPSSLSASVGDRVTITCRASQDVFGGVAWYQQKPGKAPKLLIYWSSWLYSGVPSRFSGSGSGTDFTLTISSLQPEDFATYYCQQYYDGPITFGQGTKVEIKR",> 10,0.672,> 500,> 20,> 200,> 200,4.22,6280,188,367,,,
"Do1 (antibody, V domains shown) VH: EVQLVESGGGLVQPGGSLRLSCAASGFTIDNGSIHWVRQAPGKGLEWVAWIGPYGGFTSYADSVKGRFTISADTSKNTAYLQMNSLRAEDTAVYYCARFYGSGSSSFMDYWGQGTLVTVSS VL: DIQMTQSPSSLSASVGDRVTITCRASQDVWGGVAWYQQKPGKAPKLLIFFSRYLYSGVPSRFSGSGSGTDFTLTISSLQPEDFATYYCQQYYNGPLTFGQGTKVEIKR",> 10,> 100,> 500,> 20,> 200,> 200,,228,278,313,,,
"S11 (antibody, V domains shown) VH: EVQLVESGGGLVQPGGSLRLSCAASGFTIDNGGIHWVRQAPGKGLEWVAWIGPYGGSTSYADSVKGRFTISADTSKNTAYLQMNSLRAEDTAVYYCARFGFGLHDLMDYWGQGTLVTVSS VL: DIQMTQSPSSLSASVGDRVTITCRASQDVYSWVAWYQQKPGKAPKLLIYYSSFLYSGVPSRFSGSGSGTDFTLTISSLQPEDFATYYCQQYYNGPLTFGQGTKVEIKR",0.0781,> 100,> 500,> 20,> 200,> 200,4.07,5600,207,434,,,
"S48 (antibody, V domains shown) VH: EVQLVESGGGLVQPGGSLRLSCAVSGFTIGDGSIHWVRQAPGKGLEWVASIGPYGGSTYYADSVKGRFTISADTSKNTAYLQMNSLRAEDTAVYYCARFHYGYWNNMDYWGQGTLVTVSS VL: DIQMTQSPSSLSASVGDRVTITCRASQDVGWWVAWYQQKPGKAPKLLIYGTRWLYSGVPSRFSGSGSGTDFTLTISSVQPEDFATYYCQQYYSGPITFGQGTKVEIKR",0.0737,> 100,> 500,> 20,> 200,> 200,4.86,6240,122,875,,,1.92
"S10 (antibody, V domains shown) VH: EVQLVESGGGLVQPGGSLRLSCAASGFTIGGYGIHWVRQAPGKGLEWVASIGPSWGFTFYADSVKGRFTISADTSKNTAYLQMNSLRAEDTAVYYCARFNWVINGVTDYWGQGTLVTVSS VL: DIQMTQSPSSLSASVGDRVTITCRASQDVSYYVAWYQQKPGKAPKLLIFWSTFLYSGVPSRFSGSGSGTDFTLTISSLQPEDFATYYCQQYYDSPMTFGQGTKVEIKR",0.259,0.349,1560,> 20,0.267,> 200,3.38,10700,511,1100,7.86,,0.79
